Laboratory results reported in publication doi:10.1101/2025.06.01.657267, “IFITM1 and IFITM3 cooperate to restrict virus entry in endolysosomes” (bioRxiv, 2025).

Target: T1, FLAG-IFITM3 G95L (human, UniProt Q01628 1-133, G95L)
T1 construct: Interferon-induced transmembrane protein 3 (IFITM3), human, with G95L in the GxxxG motif of the CD225 domain; also called pQCXIP-FLAG-IFITM3 G95L; source: HEK293T, stably expressing pQCXIP-FLAG-IFITM3 G95L, in lysate; HEK293T, transiently transfected, in fixed cells
Assay: affinity purification with mass spectrometry; anti-FLAG (M2) immunoprecipitation from whole cell lysates (1% Triton X-100, 150 mM NaCl) of HEK293T stably expressing FLAG-IFITM3 WT, G95L or Empty Vector; TMT labelling, duplicate MS runs
Conditions: partners not purified

T1 sequence (Q01628 whole entry G95L, the tested form may be a part): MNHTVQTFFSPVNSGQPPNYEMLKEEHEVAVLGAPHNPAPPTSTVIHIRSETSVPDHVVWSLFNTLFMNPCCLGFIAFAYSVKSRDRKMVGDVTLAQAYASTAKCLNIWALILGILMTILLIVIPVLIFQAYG

B1: endogenous IFITM1 (natural protein, UniProt P13164 1-125, looked up)
chain: MHKEEHEVAVLGPPPSTILPRSTVINIHSETSVPDHVVWSLFNTLFLNWCCLGFIAFAYSVKSRDRKMVGDVTGAQAYASTAKCLNIWALILGILMTIGFILLLVFGSVTVYHIMLQIIQEKRGY
notes: Interferon-induced transmembrane protein 1 (IFITM1), human, endogenous
  fold more IFITM1 pulled down by IFITM3 WT than by IFITM3 G95L: ~9 fold
